# From the supplement of paper PMC9170038
# Tested on: MS2 coat protein
# Assay: apparent KD of MS2 coat protein; designed switch direction (-1 OFF switch, 1 ON switch): 1; higher = weaker reporter binding
# Summary of the method: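 An oligonucleotide input, 200 uM small-molecule ligand, or no input was present during titration of SNAP-549-labelled MS2 coat protein, which was doubled from 0.7 or 1.5 nM to 3 µM. Designed RNA switches had been transcribed on Illumina chips by stalled E. coli RNA polymerase. Apparent KD per design is the median over clusters of curves fitted to normalised cluster fluorescence.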
# [1] = input ligand: microRNA oligo, concentration not stated
# [2] = Eterna round: R95, input ligand: FMN 200 uM
# [3] = Eterna round: R95, input ligand: microRNA oligo, concentration not stated
# [4] = Eterna round: R95, input ligand: none
Sequence,apparent KD of MS2 coat protein (input ligand: FMN 200 uM) [µM],apparent KD of MS2 coat protein [1] [µM],apparent KD of MS2 coat protein (input ligand: none) [µM],apparent KD of MS2 coat protein [2] [µM],apparent KD of MS2 coat protein [3] [µM],apparent KD of MS2 coat protein [4] [µM]
"AGAGGAGGAGCAGGAUAUGCGAAGAAGAACGAGGUAGAAGGGCUCAUGCGAUGACAUGAGGAUCACCCAUGUACCGCGCGAGGA [AK SSNG1-V2-8.2] (Eterna round: R96, puzzle: Same State NG 1)",0.207,0.209,0.142,–,–,–
AUAAGUUCGAUGCUCGUCUCUCCGUACAAACAUGAGGAUCACCCAUGUGAUCGAGAAGUAGCCCGAUCAGUAUGGCC [Soainge] (puzzle: Sensor for hsa-mir-208a),–,–,–,0.0302,0.027,0.0353
AAACUACAUGAGGAUCACCCAUGUGAAAACCGCAUAGGAUAUCCGCAGCAAUAAACUGACGGAGAAGGGUGACCGG [Sobearcege] (puzzle: Same State 1),–,–,–,0.306,0.414,0.549
CAGCGCUGUCGAGAGGAUAUGCGGUGGUGGACAUGAGGAUCACCCAUGUUAGCGAUAGCAUUACGGUAGAAGGCUCUACAGCUGC [Soteed - 2] (puzzle: Same State 2),–,–,–,0.0309,0.0224,0.033
"UGAAUAGUUACAGGAUAUGAGCCGUAAAUUGGGUCAGAAGGGUGGGUGUUCUGCGCGGUGUGUUACAUGAGGAUCACCCAUGUU [SameState NG1 #30] (Eterna round: R96, puzzle: Same State NG 1)",0.245,0.0998,0.244,–,–,–
AGCUAUCGAAAACGAUAGCAAAAGCAUGUACAUGAGGAUCACCCAUGUCAUGUACAAGCUUUUUGCUCGUCUUGAAA [Zipper 23 - 9] (puzzle: Sensor for hsa-mir-208a),–,–,–,0.132,0.013,1.39
"UGAAUAGUUACAGGAUAUGAGUUGUAAAUUGGGUCAGAAGGGUGGGUGUUUUGCGCGGUGUGUUACAUGAGGAUCACCCAUGUU [SameState NG1 #28] (Eterna round: R96, puzzle: Same State NG 1)",0.0818,0.0751,0.122,–,–,–
UCUUGGUUUUUGCUCGUUUUUUGUGUUGAACAUGAGGAUCACCCAUGUAUUGUACAGUCCAGUUUAAUAAUGGUCCA [JMF 5] (puzzle: Sensor for hsa-mir-208a),–,–,–,0.0339,0.0246,0.0488
UACAAUCUAUCUGAGGAUAUCAUGAAGAAAACAUGAGGAUCACCCAUGUGCAGGAUAACUGCAAAUGAGAAGGCAGAUAGAUUGG [Mat - Same State 2 - Mod - D4] (puzzle: Same State 2),–,–,–,0.0129,0.017,0.0246
"GCAGGACGGUAAAACAUCUCACAUGAGGAUCACCCAUGUCGUGAGGAUAUGGAUCCUAAUUGGAUCCAGAAGGCACGGUCCUGC [Fiskers NG3ss - 29] (Eterna round: R96, puzzle: Same State NG 3)",0.0184,0.014,0.0136,–,–,–
"AGCUAUUAAUCAGGAUAUAGUGACAUGAGGAUCACCCAUGUAUUGAUGAUUAAAUGUGGUCACCACUAGAAGGGAUUACUAACA [SameState NG2 #48] (Eterna round: R96, puzzle: Same State NG 2)",0.0232,0.0238,0.0269,–,–,–
"GGAGCCGGCCUAGGAUAUUUCAUAAGAAAACAUGAGGAUCACCCAUGUAGGCCAGAAGGCCUUGGGAAGAAGGAGGUCGGCUCC [Loop Effect - G26] (Eterna round: R96, puzzle: Same State NG 2)",0.0112,0.0197,0.0351,–,–,–
"AAAAGAAACGCAGGAUAUGCACAUGAGGAUCACCCAUGUCCCACAGGCUCGACCGAGCCCGUGAAGCAGAAGGGUGUAAGAAAA [Redibere] (Eterna round: R96, puzzle: Same State NG 2)",0.0825,0.426,3.39,–,–,–
GGUCCAGCCUGAGCUGGACUACAGCAUGUACAUGAGGAUCACCCAUGUCAUGUACAUGCUUUUUGUUUGUCUUAAAA [Sensorship 10 - Jieux - Sensor for hsa-mir-208a] (puzzle: Sensor for hsa-mir-208a),–,–,–,0.0202,0.0388,0.0246
